Experimental data published in patent US20230322944A1.

Biological target: cynomolgus monkey CD122 on NK cells (cynomolgus monkey) (UniProt Q38J85)
Experiment: flow cytometry of blood from cynomolgus monkeys after a single IV dose of 1 mg/kg

cynomolgus monkey CD122 on NK cells (cynomolgus monkey), sequence (Q38J85 27-551 limits assumed): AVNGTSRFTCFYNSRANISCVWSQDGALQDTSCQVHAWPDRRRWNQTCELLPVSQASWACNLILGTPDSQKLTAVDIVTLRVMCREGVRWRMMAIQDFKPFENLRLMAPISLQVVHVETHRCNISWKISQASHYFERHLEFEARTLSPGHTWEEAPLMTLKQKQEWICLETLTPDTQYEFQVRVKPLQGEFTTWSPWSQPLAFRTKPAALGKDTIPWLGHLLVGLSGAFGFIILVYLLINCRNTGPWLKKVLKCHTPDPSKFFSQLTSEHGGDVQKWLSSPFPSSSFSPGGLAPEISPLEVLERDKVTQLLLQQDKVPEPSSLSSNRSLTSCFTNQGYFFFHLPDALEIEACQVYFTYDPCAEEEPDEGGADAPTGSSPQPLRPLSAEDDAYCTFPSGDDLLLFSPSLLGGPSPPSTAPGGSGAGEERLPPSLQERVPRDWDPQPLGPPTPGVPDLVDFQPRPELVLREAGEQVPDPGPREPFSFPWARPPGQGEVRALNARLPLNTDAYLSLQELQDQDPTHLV

CD122 receptor occupancy on NK cells | Binder
> 90% | MAB05 (antibody, V domains shown) VH: EVQLLESGGGLVQPGGSLRLSCAASGFTVTSYAVHWVRQAPGKGLEWLGVIWSGGSTDYNAAFISRLTISKDNSKNTVYFQMNSLRAEDTAVYYCARAGDANYDGFAYWGQGTLVTVSS VL: DIQMTQSPSSLSASVGDRVTITCQASQSVSFLYWYQQRPGKAPRLLIYDTSNLASGVPSRFSGSGSGTSYTFTISSLQPEDIATYYCQQWSTYPLTFGQGTKVEIK
> 90% | MAB06 (antibody, V domains shown) VH: EVQLLESGGGLVQPGGSLRLSCAASGFTVTSYAVHWVRQAPGKGLEWLGVIWSGGSTDYNAAFISRLTISKDNSKNTVYFQMNSLRAEDTAVYYCARAGDANYDGFAYWGQGTLVTVSS VL: DIQMTQSPSSLSASVGDRVTITCQASSSVSFMYWYQQRPGKAPRLLIYDTSNLASGVPSRFSGSGSGTSYTFTISSLQPEDIATYYCQQWSTYPLTFGQGTKVEIK
